According to the supplement of paper PMC12042874:
± gives the uncertainty stated by the source.

assay: amyloid nucleation score (Sup35N fusion, yeast selection) (log enrichment); library NNK3; higher = more nucleation; inactive = no reads after selection
Procedure, shortened: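 Nucleation score is defined as the DiMSum log enrichment of output over input reads, with centring on the mode score of non-aggregating sequences. A minimum of 100 input reads was required for each sequence. Reads came from Illumina sequencing of plasmid inserts from psi-negative yeast expressing Sup35N fused to peptides of 20 random codons, induced with 100 μM copper sulfate for 24 hours and grown 7 days at 30°C on medium lacking adenine and uracil.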

Substance	amyloid nucleation score
YGMDIIWW	inactive
FWHENSIAELWICKTLLGKF	inactive
HSVASDYRTAFLLSHT	1.39 ± 0.089
LCYNVKSVCGQTMLQLVE	inactive
AHGEMRAVKPINFKACWRCL	inactive
TGWSWISLYWLCSNMVIVNR	inactive
FSITVFFVNIAATSKPYLDK	inactive
MCVWVWI	2.06 ± 0.092
VIDDHMFQRKRQMVLKKQLN	inactive
QGVVV	inactive
ENALRLRQVGQILGLNCRIV	inactive
DICHWVEYFV	inactive
WLRLIA	inactive
YIYEEASK	inactive
VSGSKWQLREGVAKYMMCRY	inactive
NTFCGVEISSYIGAARKCLK	inactive
AKCMSDFVECRKSRRMMAGW	inactive
FQGSNCP	inactive
MKLCNVRGIKVFAFCSGSRR	1.3 ± 0.1
SPSGSIVAVTPLIWR	inactive
LNWLC	1.07 ± 0.086
GLLSR	inactive
NRNFYGL	inactive
CKHYVGLYKLTVWRFCGKNT	inactive
MTLFVSDTVRSLGNGNWA	inactive
SSMWF	inactive
FFRRSRYEYKSFGVNNVMNG	inactive

Substance	amyloid nucleation score
YRNNAFPSEMHPIGRLEYAV	0.456 ± 0.15
RMLGLNQYCSMLICTIVNFS	1.19 ± 0.11
ISVSRKLLKCLVKCMNPGCG	inactive
TEYFSRCRF	0.36 ± 0.49
RNLVWA	inactive
INFHMS	inactive
AFMVKYSSVLYVCNLALGRA	inactive
EVVLFKYVVL	0.848 ± 0.19
WYGVSACYGWHNVAHSSRSL	1.22 ± 0.18
ILCSSDCDSYSLQPLFGFPC	inactive
ELGPYLNSLVAHFSRLY	inactive
KGLASSYRTTYAVDL	inactive
IYRLDSSTSCICHCFLILVF	inactive
PVALLTD	inactive
LGFESCVHRGKIKAVVMTST	inactive
WYTIRDYRAFLSVM	inactive
FLYRDSSCRLSLM	inactive
ILIRHDAMNRYPQC	inactive
CFVDFYSWWLSITVQGLHNN	inactive
PNGREWIMKYVGDAGYRVLS	0.515 ± 0.36
ISILLIFPCEAVIFLPF	inactive
HALSRDVVKMLCSFNNYLTW	inactive
RSSSIYYICFQTFTRCNYPV	inactive
CVLRAFATVKHFTSGLCSCG	inactive
MICHDLRSFIM	inactive
LLVLPGGVSGVNLRDEWTDF	inactive
VEGCKEGVRVYHLTFESFVI	inactive

Substance	amyloid nucleation score
HSEADDSLTGYFALVATRVF	inactive
KAVGRSIVYDFGSALCEMIN	1.4 ± 0.12
RTLNYFSHVCQSSINWSSLV	0.743 ± 0.16
MFGFRNITK	0.583 ± 0.2
RYLDCFVVVLVSDFMLRYVS	inactive
RVLSCECKVGRKWICTELFV	inactive
TVTWFDINCMVGFLY	0.431 ± 0.68
ELVVLYLYRRASSGWS	inactive
KADECS	inactive
YCSCNEGGLDPSLTMTL	inactive
NYKLQKHAWMNYSAHQECLF	inactive
WGNLCQSGALCCQEGC	inactive
VVLFKISSYPRHIHFGFHLL	inactive
RVVGRRSNYFVFLFRTLGRN	inactive
REREF	inactive
FWLTNISFDLKFKINSSEFT	0.205 ± 0.33
INRHGCIGVHTLSLMLRPCV	inactive
MLFYCN	inactive
CYEGR	inactive
AAMHLDILNGTATRLSYSCA	inactive
CVVPHPLSLPSD	inactive
WMMRD	inactive
LHIVNCCQPKHTRFVFQWYW	1.89 ± 0.1
TSLLILRCSGE	inactive
PLAGLELCMRRRWVEE	inactive
LVKTCRYRGSDLSVLVGVRI	inactive
